The source of these data is PMC6398391 (The FEBS journal, 2018).

The assay deals with c-MYC:MAX bHLHZip heterodimer (MYC 352-437, MAX 22-102) (human, UniProt P01106-1 352-437; P61244 22-102). Description: NMR titration; unlabeled MYC:MAX dimer titrated into 15N-labeled INI1 RPT1 (147 uM); 1H,15N HSQC; fast exchange; shifts fitted to a single-site binding curve; 25 °C. As to conditions: both partners purified.
Sequence of c-MYC:MAX bHLHZip heterodimer (MYC 352-437, MAX 22-102) (P01106 367-452, chain 1 of 2): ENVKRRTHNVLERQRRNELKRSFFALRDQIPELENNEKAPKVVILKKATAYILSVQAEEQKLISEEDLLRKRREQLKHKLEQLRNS
Sequence of c-MYC:MAX bHLHZip heterodimer (MYC 352-437, MAX 22-102) (P61244 22-102, chain 2 of 2): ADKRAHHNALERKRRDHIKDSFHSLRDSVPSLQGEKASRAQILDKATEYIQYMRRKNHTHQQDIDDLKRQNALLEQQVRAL

B1: INI1/hSNF5 RPT1 (residues 184-258) (domain or fragment, human, UniProt Q12824 184-258, looked up)
chain: EVLVPIRLDMEIDGQKLRDAFTWNMNEKLMTPEMFSEILCDDLDLNPLTFVPAIASAIRQQIESYPTDSILEDQS
Regarding B1, the Kd (as a rule, the equilibrium constant for the complex coming apart) is 44 ± 6 µM.
